# From paper PMC7343719, “Immobilization of the Highly Active UDP-Glucose Pyrophosphorylase From Thermocrispum agreste Provides a Highly Efficient Biocatalyst for the Production of UDP-Glucose” (Frontiers in Bioengineering and Biotechnology, 2020)
# B1: TaGalU (Thermocrispum agreste) (protein)
# chain: MTASAEHQTFTTAIVPAAGLGTRFLPTTKSVPKELLPVVDTPAIELVADEARQAGAERLVIVTSPAKQSIAAYFRPAPELERSLEEKGKTGQLAKIRRAPELLEVEVAIQEQALGLGHAVACAEPNLGPEDDVVAVLLPDDLVLPHGILERMAKVRAEHGGSVLCAFDIPKEEISAYGVFDVSDTDDADVKRVHGMVEKPPAEQAPSTFAAAGRYLLDRAIFDALRRIEPGAGGELQLTDAVALLIQEGHPVHVVVHRGVRHDLGNPGDFLRAAVDFALQDPDYGPELRAWLTDRIARP
# notes: full-length, N-terminal His10 tag (pET16bP, no cleavage mentioned), codon-optimized gene (911 bp insert), expressed in E. coli BL21(DE3) pLysS; theoretical mass 33,678 Da; hexamer of about 193 kDa by SEC; EC 2.7.7.9
# Assays:
# [1] = substrate: O=c1ccn([C@@H]2O[C@H](COP(=O)(O)OP(=O)(O)OP(=O)(O)O)[C@@H](O)[C@H]2O)c(=O)[nH]1; assay: purified protein; format: biochemical, Thermocrispum agreste; conditions: free enzyme, 0.05-6 mM UTP, 30 mM G1P, 3 mM MgCl2, 50 mM Hepes, pH 7.0, 50°C
# [2] = substrate: O=P(O)(O)O[C@H]1O[C@H](CO)[C@@H](O)[C@H](O)[C@H]1O; assay: purified protein; format: biochemical, Thermocrispum agreste; conditions: free enzyme, 0.01-45 mM G1P, 2 mM UTP, 3 mM MgCl2, 50 mM Hepes, pH 7.0, 50°C
protein,measurement,setting,value
B1,Km,[1],150 µM
same,Vmax,[1],1700 µmol/min/mg
same,kcat,[1],914 s⁻¹
same,kcat/Km,[1],6.09e+06 M⁻¹ s⁻¹
same,Km,[2],440 µM
same,Vmax,[2],1110 µmol/min/mg
same,kcat,[2],598 s⁻¹
same,kcat/Km,[2],1.36e+06 M⁻¹ s⁻¹
